Test results from paper PMC7493027, “Mps1 dimerization and multisite interactions with Ndc80 complex enable responsive spindle assembly checkpoint signaling” (Journal of Molecular Cell Biology, 2020).
Blank lines part the entries; values can stand above or below the binder they belong to.

How the values were obtained:
[1] = biological target: the molecule itself; assay: pull-down; GST-Mps1^C342-WT, GST-Mps1^C342-KD or GST-Mps1^PK-KD on agarose beads; purified 6× His-tagged Mps1^C342-WT or -KD; SDS-PAGE and anti-6× His blot (Figure 3C, Supplementary Figure S4E)
GST-Nuf2^1–169 = biological target: T1, GST-Nuf2^1–169 (UniProt Q9BZD4 1-169); assay: pull-down; GST-Hec1^1–196, GST-Hec1^1–196-9D or GST-Nuf2^1–169 on agarose beads as affinity matrices; MBP-tagged Mps1 truncations purified from E. coli; SDS-PAGE and anti-MBP blot; settings: both partners purified
T1 construct: Nuf2 (nuclear filament-containing protein 2), residues 1-169, with the calponin-homology domain
T1 sequence (looked up): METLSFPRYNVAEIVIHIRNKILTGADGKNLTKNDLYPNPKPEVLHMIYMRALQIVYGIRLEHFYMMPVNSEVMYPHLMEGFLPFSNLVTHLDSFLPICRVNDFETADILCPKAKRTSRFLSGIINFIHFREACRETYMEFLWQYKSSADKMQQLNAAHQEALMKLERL

GST-Hec1^1–196 = biological target: T2, GST-Hec1^1–196 (UniProt O14777 1-196); assay: as above; settings: both partners purified
T2 construct: Hec1 (highly expressed in cancer 1)
T2 sequence (looked up): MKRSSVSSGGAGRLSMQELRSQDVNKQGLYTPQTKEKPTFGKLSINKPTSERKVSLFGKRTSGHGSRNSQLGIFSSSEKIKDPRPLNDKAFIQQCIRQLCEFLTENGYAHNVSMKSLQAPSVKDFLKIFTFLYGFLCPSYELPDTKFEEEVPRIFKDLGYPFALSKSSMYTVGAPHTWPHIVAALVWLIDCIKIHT

B1: Mps1^C342-WT fragment (amino acids 516–857), GST-tagged or 6× His-tagged (domain or fragment, human, UniProt P33981 516-857, looked up)
chain: ECISVKGRIYSILKQIGSGGSSKVFQVLNEKKQIYAIKYVNLEEADNQTLDSYRNEIAYLNKLQQHSDKIIRLYDYEITDQYIYMVMECGNIDLNSWLKKKKSIDPWERKSYWKNMLEAVHTIHQHGIVHSDLKPANFLIVDGMLKLIDFGIANQMQPDTTSVVKDSQVGTVNYMPPEAIKDMSSSRENGKSKSKISPKSDVWSLGCILYYMTYGKTPFQQIINQISKLHAIIDPNHEIEFPDIPEKDLQDVLKCCLKRDPKQRISIPELLAHPYVQIQTHPVNQMAKGTTEEMKYVLGQLVGLNSPNSILKAAKTLYEHYSGGESHNSSSSKTFEKKRGKK
notes: Mps1, human, amino acids 516-857: protein kinase domain (516-792) and C-tail (793-857); Two differently tagged copies of one fragment: the GST copy was the bait on beads, the 6× His copy the prey; each chain bears only one of the two tags; also called GST-Mps1^C342-WT; 6× His-Mps1^C342-WT; source: recombinant, purified
binding result [1]: binds

binding result (GST-Nuf2^1–169): binds
binding result (GST-Hec1^1–196): binds
B2: MBP-tagged Mps1 tetratricopeptide repeat domain (TPR, amino acids 62–192) (domain or fragment, human, UniProt P33981 62-192, looked up)
chain: PEDWLSLLLKLEKNSVPLSDALLNKLIGRYSQAIEALPPDKYGQNESFARIQVRFAELKAIQEPDDARDYFQMARANCKKFAFVHISFAQFELSQGNVKKSKQLLQKAVERGAVPLEMLEIALRNLNLQKK
notes: Mps1, human, tetratricopeptide repeat domain, amino acids 62-192; also called Mps1^TPR; source: Escherichia coli, purified

binding result (GST-Nuf2^1–169): binds
binding result (GST-Hec1^1–196): binds
B3: MBP-tagged Mps1 C-terminal extension (CTE, amino acids 193–300) (domain or fragment, human, UniProt P33981 193-300, looked up)
chain: QLLSEEEKKNLSASTVLTAQESFSGSLGHLQNRNNSCDSRGQTTKARFLYGENMPPQDAEIGYRNSLRQTNKTKQSCPFGRVPVNLLNSPDCDVKTDDSVVPCFMKRQ
notes: Mps1, human, C-terminal extension of N300, amino acids 193-300; source: Escherichia coli, purified
